Data: publication PMC7660914 (Microbiology, 2020)

B2: H6 flagella (polymeric FliC flagellin) of E. coli O127:H6 (natural protein)
chain: MAQVINTNSLSLITQNNINKNQSALSSSIERLSSGLRINSAKDDAAGQAIANRFTSNIKGLTQAARNANDGISVAQTTEGALSEINNNLQRIRELTVQASTGTNSDSDLDSIQDEIKSRLDEIDRVSGQTQFNGVNVLAKDGSMKIQVGANDGQTITIDLKKIDSDTLGLNGFNVNGKGETANTAATLKDMSGFTAAAAPGGTVGVTQYTDKSAVASSVDILNAVAGADGNKVTTSADVGFGTPAAAVTYTYNKDTNSYSAASDDISSANLAAFLNPQARDTTKATVTIGGKDQDVNIDKSGNLTAADDGAVLYMDATGNLTKNNAGGDTQATLAKVATATGAKAATIQTDKGTFTSDGTAFDGASMSIDANTFANAVKNDTYTATVGAKTYSVTTGSAAADTAYMSNGVLSDTPPTYYAQADGSITTTEDAAAGKLVYKGSDGKLTTDTTSKAESTSDPLAALDDAISQIDKFRSSLGAVQNRLDSAVTNLNNTTTNLSEAQSRIQDADYATEVSNMSKAQIIQQAGNSVLAKANQVPQQVLSLLQG

Columns and labels:
[1] = target: B2; assay: ELISA; conditions: both partners purified
SEC = target: the molecule itself; assay: SEC

B1: recombinant human galectin-4 (natural protein, UniProt P56470 1-323, looked up)
chain: MAYVPAPGYQPTYNPTLPYYQPIPGGLNVGMSVYIQGVASEHMKRFFVNFVVGQDPGSDVAFHFNPRFDGWDKVVFNTLQGGKWGSEERKRSMPFKKGAAFELVFIVLAEHYKVVVNGNPFYEYGHRLPLQMVTHLQVDGDLQLQSINFIGGQPLRPQGPPMMPPYPGPGHCHQQLNSLPTMEGPPTFNPPVPYFGRLQGGLTARRTIIIKGYVPPTGKSFAINFKVGSSGDIALHINPRMGNGTVVRNSLLNGSWGSEEKKITHNPFGPGQFFDLSIRCGLDRFKVYANGQHLFDFAHRLSAFQRVDTLEIQGDVTLSYVQI
notes: also called GAL4
- binding result [1]: binds

Binder: B2
- binding result (SEC): binds
